# Test results taken from paper PMC6536115.
# B1: Monocarboxylate transporter 1 (MCT1) (Mus musculus) (protein)
# chain: MPPAIGGPVGYTPPDGGWGWAVLVGAFISIGFSYAFPKSITVFFKEIEVIFSATTSEVSWISSIMLAVMYAGGPISSILVNKYGSRPVMIAGGCLSGCGLIAASFCNTVQELYLCIGVIGGLGLAFNLNPALTMIGKYFYKKRPLANGLAMAGSPVFLSTLAPLNQAFFDIFDWRGSFLILGGLLLNCCVAGSLMRPIGPEQVKLEKLKSKESLQEAGKSDANTDLIGGSPKGEKLSVFQTINKFLDLSLFTHRGFLLYLSGNVVMFFGLFTPLVFLSSYGKSKDFSSEKSAFLLSILAFVDMVARPSMGLAANTKWIRPRIQYFFAASVVANGVCHLLAPLSTTYVGFCVYAGVFGFAFGWLSSVLFETLMDLIGPQRFSSAVGLVTIVECCPVLLGPPLLGRLNDMYGDYKYTYWACGVILIIAGIYLFIGMGINYRLLAKEQKAEEKQKREGKEDEASTDVDEKPKETMKAAQSPQQHSSGDPTEEESPV
# Substrate: C[C@H](O)C(=O)O
# Experiment: cells, lysate or membranes
# Settings: proton
protein,measurement,value
B1,Km,3.88 ± 0.86 mM
same,Vmax,0.414 µmol/min/mg
